Test results published in PMC11741385 (bioRxiv, 2025).

Biological target: the molecule itself
Experiment: cryo-EM structure

B1: Candida albicans Pra1 (recombinant, full-length excluding the signal peptide) (natural protein, UniProt P87020 16-299, looked up)
chain: APVTVTRFVDASPTGYDWRADWVKGFPIDSSCNATQYNQLSTGLQEAQLLAEHARDHTLRFGSKSPFFRKYFGNETASAEVVGHFDNVVGADKSSILFLCDDLDDKCKNDGWAGYWRGSNHSDQTIICDLSFVTRRYLTQLCSSGYTVSKSKTNIFWAGDLLHRFWHLKSIGQLVIEHYADTYEEVLELAQENSTYAVRNSNSLIYYALDVYAYDVTIPGEGCNGDGTSYKKSDFSSFEDSDSGSDSGASSTASSSHQHTDSNPSATTDANSHCHTHADGEVHC
modifications: N-linked glycosylation at Asn48, Asn89, Asn135 and Asn208; three intramolecular disulphide bonds
stoichiometry N: 6
